Results: US20240368617A1, “NPR1 VARIANT TO ENHANCE PLANT RESISTANCE TO BIOTIC AND ABIOTIC STRESSES AND METHOD THEREOF” (Duke University, published 2024)
Where a chain is given by its changes, count along the chain named. In names and notes the source's numbering stands. Each block holds one binder with its values, some of them ahead of it.

Columns and labels:
npr1(dim)-HA = molecular target: T1, npr1(dim)-HA (Arabidopsis thaliana, UniProt P93002 1-593); assay: co-immunoprecipitation of GFP- and HA-fused proteins with anti-HA beads, N. benthamiana, with and without SA
T1 construct: also called L49D/F53D/V56D/V83K; not shown: C-terminal HA tag from vector pLN462
T1 chain: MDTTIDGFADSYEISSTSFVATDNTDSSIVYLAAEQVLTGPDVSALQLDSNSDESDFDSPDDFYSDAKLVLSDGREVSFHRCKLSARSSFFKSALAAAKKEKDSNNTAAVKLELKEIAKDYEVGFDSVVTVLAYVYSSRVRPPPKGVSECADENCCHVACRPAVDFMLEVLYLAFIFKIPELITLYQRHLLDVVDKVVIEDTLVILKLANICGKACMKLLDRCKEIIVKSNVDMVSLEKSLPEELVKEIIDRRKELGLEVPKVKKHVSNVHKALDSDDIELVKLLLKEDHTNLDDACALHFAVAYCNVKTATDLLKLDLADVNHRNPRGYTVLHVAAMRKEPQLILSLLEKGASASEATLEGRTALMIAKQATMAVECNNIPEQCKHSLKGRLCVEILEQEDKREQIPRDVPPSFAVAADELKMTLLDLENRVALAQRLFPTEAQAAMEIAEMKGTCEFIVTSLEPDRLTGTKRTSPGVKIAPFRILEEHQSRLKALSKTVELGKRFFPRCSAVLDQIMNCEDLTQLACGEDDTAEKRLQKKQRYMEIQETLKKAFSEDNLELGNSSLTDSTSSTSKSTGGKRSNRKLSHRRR
Experimental: (§1) For plant transformations, the Agrobacterium tumefaciens strain GV3101 was transformed with plant binary vectors carrying the indicated transgenes. For stable expression in Arabidopsis, a floral dipping method was used. For transient expression in N. benthamiana, the Agrobacterium carrying the indicated construct was cultured over-night at 28° C. in LB broth medium supplemented with appropriate antibiotics: spectinomycin (100 μg ml-1), kanamycin (50 μg ml-1), gentamycin (50 μg ml-1) and rifampicin (25 μg ml-1). The obtained culture was re-inoculated at 1:10 into fresh growth medium with antibiotics and grown for another 4 h. Cells were then centrifuged at 1,600g for 10 min, and inoculum was prepared by resuspending cells to an OD600 of 1 in double-distilled water containing 200 μM acetosyringone (Sigma-Aldrich). The co-expression assays were per-formed with a 1:1 mixture of Agrobacteria inoculums. The inoculum was pressure-infiltrated into N. benthamiana leaves at the abaxial side using 1 ml syringe without the needle.
Recombinant protein analysis, co-immunoprecipitation and cell-free oligomerization were performed using total protein extracts from the transient expression assay in N. benthamiana as described previously. […]

[1] = molecular target: the molecule itself; assay: size-exclusion chromatography (later elution than WT) and low-resolution cryo-EM (single-wing shape)
npr1(A151P/D152R)-HA = molecular target: T2, npr1(A151P/D152R)-HA (Arabidopsis thaliana, UniProt P93002 1-593); assay: co-immunoprecipitation after transient co-expression in N. benthamiana
T2 construct: not shown: C-terminal HA tag from vector pLN462
T2 sequence: T1 chain with D49L, D53F, D56V, K83V, A151P, D152R
Experimental: as §1
(§2) Recombinant protein analysis, co-immunoprecipitation and cell-free oligomerization were performed using total protein extracts from the transient expression assay in N. benthamiana as described previously. Interaction analysis of NPR1-HA with TGA3-mRFP or NPR1-GFP (self-interaction), was performed in vivo by transiently co-expressing the two proteins in N. benthamiana followed by treatment with water (mock) or 1 mM SA for 5 h. Total protein was extracted and used for co-immunoprecipitation with anti-RFP or anti-HA beads, respectively. In the NPR1-HA/TGA3-mRFP interaction experiments the npr1-1-HA was used as a negative control. Interaction between GST-NPR1 and Myc-CUL3A was performed by co-expression in E. coli as described. For western blotting under reducing conditions, the SDS sample buffer was added to the protein extracts from a 4× stock solution supplemented with 50 mM DTT and 715 mM B-mercaptoethanol. For western blotting under non-reducing conditions, a DDT-and B-mercaptoethanol-free SDS sample buffer was used. […]

npr1(L281D)-HA = molecular target: T3, npr1(L281D)-HA (Arabidopsis thaliana, UniProt P93002 1-593); assay: as above
T3 construct: not shown: C-terminal HA tag from vector pLN462
T3 sequence: T1 chain with D49L, D53F, D56V, K83V, L281D
Experimental: as §1, §2

npr1(L284D)-HA = molecular target: T4, npr1(L284D)-HA (Arabidopsis thaliana, UniProt P93002 1-593); assay: as above
T4 construct: not shown: C-terminal HA tag from vector pLN462
T4 sequence: T1 chain with D49L, D53F, D56V, K83V, L284D
Experimental: as §1, §2

binding result (npr1(dim)-HA): no binding
B1: npr1(dim)-GFP (other)
chain: T1 chain
notes: also called L49D/F53D/V56D/V83K; not shown: C-terminal eGFP from vector pK7FWG2

B2: npr1(dim) mutant (L49D/F53D/V56D/V83K) with C-terminal Strep tag, expressed in insect cells (other)
chain: T1 chain
notes: Full-length; His10-GST removed; Monomeric by size exclusion and low-resolution cryo-EM; not shown: C-terminal Strep tag
binding result [1]: no binding

binding result (npr1(A151P/D152R)-HA): no binding
binding result (npr1(L281D)-HA): no binding
binding result (npr1(L284D)-HA): no binding
B3: TGA3-mRFP (other, Arabidopsis thaliana, UniProt Q39234 1-384, looked up)
chain: MEMMSSSSSTTQVVSFRDMGMYEPFQQLSGWESPFKSDINNITSNQNNNQSSSTTLEVDARPEADDNNRVNYTSVYNNSLEAEPSSNNDQDEDRINDKMKRRLAQNREAARKSRLRKKAHVQQLEESRLKLSQLEQELVRARQQGLCVRNSSDTSYLGPAGNMNSGIAAFEMEYTHWLEEQNRRVSEIRTALQAHIGDIELKMLVDSCLNHYANLFRMKADAAKADVFFLMSGMWRTSTERFFQWIGGFRPSELLNVVMPYVEPLTDQQLLEVRNLQQSSQQAEEALSQGLDKLQQGLVESIAIQIKVVESVNHGAPMASAMENLQALESFVNQADHLRQQTLQQMSKILTTRQAARGLLALGEYFHRLRALSSLWAARPREHT
notes: Transiently co-expressed in N. benthamiana; pulled down with anti-RFP beads; also called AtTGA3; AT1G22070; not shown: C-terminal mRFP from vector pSITE-4NB
